The target in assay [1] is T1, integrin α5β1 on patient-derived glioblastoma stem-like cells (GBM-CCC-001, GBM-CCC-002, GBM-CCC-003) (human (patient-derived cells), UniProt P08648 42-1049; P05556 21-798).
T1 construct: whole, on cells; Endogenous heterodimer on cells; The cells were not engineered, so other surface proteins were also present; also called α5β1 integrin; integrin α5β1 polypeptide
Briefly: flow cytometry blocking experiment on GBM-CCC-001 cells; 1 mg/mL free PR_b peptide for 1 hour, then PR_b liposomes for 1 hour at 37° C. The procedure:
(§1) GSC neurospheres (GBM-CCC-001, GBM-CCC-002 and GBM-CCC-003) were collected into 15 mL Falcon tubes, pelleted down, and dissociated into single cells. About 200,000 cells were transferred into Eppendorf tubes in neurosphere culture media and treated with 2 mM calcein loaded PR_b liposomes or non-targeted liposomes at a lipid concentration of 150 μM for 48 hours at 37° C. on a shaker. After the incubation period, cells were pelleted down and washed twice with PBS. Flow cytometric analysis was carried out immediately using BD FACSCanto. Non-treated cells that received only media served as a control. Cell autofluorescence was subtracted from all measurements. For the blocking experiment, the same procedure was followed, except cells were preincubated with 1 mg/mL free PR_b peptide in media for 1 hour at 37° C. prior to addition of the PR_b liposomes and incubation for an additional 1 hour at 37° C.
(In flow cytometry, cells or beads pass a laser one at a time.)

Assay [2] addresses T1, integrin α5β1 on patient-derived …. Briefly: flow cytometry of calcein-loaded liposomes (150 µM lipid) on GBM-CCC-001, GBM-CCC-002 and GBM-CCC-003 cells, 48 hours at 37° C. The procedure: as §1

No end group written: not given here. (C16)2‑Glu‑C2 = not defined here

T1 sequence (P08648 42-1049, chain 1 of 2): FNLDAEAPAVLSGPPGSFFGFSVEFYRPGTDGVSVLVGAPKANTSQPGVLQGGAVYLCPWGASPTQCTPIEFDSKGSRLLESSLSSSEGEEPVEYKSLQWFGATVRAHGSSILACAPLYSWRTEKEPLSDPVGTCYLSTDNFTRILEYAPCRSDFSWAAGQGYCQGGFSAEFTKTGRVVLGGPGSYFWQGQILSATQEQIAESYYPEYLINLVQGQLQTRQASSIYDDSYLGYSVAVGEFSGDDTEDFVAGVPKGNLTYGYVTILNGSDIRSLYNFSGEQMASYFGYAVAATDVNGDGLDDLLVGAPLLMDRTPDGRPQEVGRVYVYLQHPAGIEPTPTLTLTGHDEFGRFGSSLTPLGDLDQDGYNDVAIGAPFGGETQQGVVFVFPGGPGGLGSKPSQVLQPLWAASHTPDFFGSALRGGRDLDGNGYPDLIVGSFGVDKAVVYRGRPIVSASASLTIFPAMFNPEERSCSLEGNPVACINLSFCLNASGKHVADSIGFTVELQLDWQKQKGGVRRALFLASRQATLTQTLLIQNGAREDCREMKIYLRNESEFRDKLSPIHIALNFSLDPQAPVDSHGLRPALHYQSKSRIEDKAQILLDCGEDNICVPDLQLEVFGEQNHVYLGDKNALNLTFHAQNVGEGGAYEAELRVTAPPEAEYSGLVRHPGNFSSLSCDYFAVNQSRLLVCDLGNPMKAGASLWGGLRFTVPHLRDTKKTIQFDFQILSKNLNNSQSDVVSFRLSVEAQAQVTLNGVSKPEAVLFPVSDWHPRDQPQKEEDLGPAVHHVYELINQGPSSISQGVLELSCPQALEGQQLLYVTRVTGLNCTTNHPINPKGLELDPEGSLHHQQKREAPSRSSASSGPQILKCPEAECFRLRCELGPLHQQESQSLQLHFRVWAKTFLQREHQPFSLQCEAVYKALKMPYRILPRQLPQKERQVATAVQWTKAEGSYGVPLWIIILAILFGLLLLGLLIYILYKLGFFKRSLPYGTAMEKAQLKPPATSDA
T1 sequence (P05556 21-798, chain 2 of 2): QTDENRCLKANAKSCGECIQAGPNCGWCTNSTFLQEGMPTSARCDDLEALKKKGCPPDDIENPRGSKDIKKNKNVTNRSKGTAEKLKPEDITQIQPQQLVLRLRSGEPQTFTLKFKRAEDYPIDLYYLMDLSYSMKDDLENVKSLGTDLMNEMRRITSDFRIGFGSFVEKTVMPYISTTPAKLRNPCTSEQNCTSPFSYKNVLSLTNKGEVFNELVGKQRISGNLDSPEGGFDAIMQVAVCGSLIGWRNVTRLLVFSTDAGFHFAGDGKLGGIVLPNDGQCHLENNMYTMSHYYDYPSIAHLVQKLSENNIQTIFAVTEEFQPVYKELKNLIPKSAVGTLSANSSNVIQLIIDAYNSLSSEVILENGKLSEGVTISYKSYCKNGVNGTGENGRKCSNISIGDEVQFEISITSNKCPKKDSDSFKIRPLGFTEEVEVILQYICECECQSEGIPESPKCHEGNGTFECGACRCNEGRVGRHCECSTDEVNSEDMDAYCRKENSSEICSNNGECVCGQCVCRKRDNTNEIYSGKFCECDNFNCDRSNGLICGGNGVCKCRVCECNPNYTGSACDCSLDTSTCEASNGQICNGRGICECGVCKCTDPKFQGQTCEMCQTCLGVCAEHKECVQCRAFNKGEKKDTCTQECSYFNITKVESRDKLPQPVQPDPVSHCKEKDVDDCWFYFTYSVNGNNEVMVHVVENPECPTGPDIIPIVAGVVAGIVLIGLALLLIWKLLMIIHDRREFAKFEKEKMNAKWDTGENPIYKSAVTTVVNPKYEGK

On to KSSPHSRNSGSGSGSGSGRGDSP [free PR_b peptide], for which, in assay [1], the binding result was “binds”.

Take {(C16)2‑Glu‑C2}-KSSPHSRNSGSGSGSGSGRGDSP (reading uncertain; also: printed as (C16)2-Glu-C2-KSSPHSRNSGSGSGSGSGRGDSP, Synthetic fibronectin-mimetic peptide): in assay [2], the binding result is reported as “binds”.

(Values after patent publication US20240209361A1 (Johns Hopkins, published 2024).)
